In patent US20230365623A1, “DERIVATISATION OF PEPTIDES AND PROTEINS” (FLOREY INSTITUTE OF NEUROSCIENCE AND MENTAL HEALTH, priority 2020, published 2023):

Experiment: Atomic force microscopy studies for fibrillation (glucagon)
Format: physicochemical
Conditions: 287 mM, Milli-Q water pH 2, 37° C., 4 days
Description: For atomic force microscopy experiments, 287 mM solutions of glucagon and glycoglucagon prepared by dissolving each of glucagon and glycoglucagon obtained in Example 9 in Milli-Q water, adjusted to pH 2 with HCl were incubated at 37° C. for four days. Topographic images of glucagon aggregates were collected with a Dimension iCon Atomic Force Microscopy (Bruker, Billerica, MA, USA). Tapping mode atomic force microscopy (AFM) images were recorded using silicon cantilevers (model RTESPA, Veeco, Santa Barbara, CA) with resonance frequency ˜300 kHz, nominal tip radius 8 nm and nominal spring constant 42 N/m.
Representative AFM height images are shown in FIG. 11, of (A) glucagon (287 mM) and (B) glycoglucagon (287 mM) incubated at 37° C. for 4 days. The vertical colour scale is (A) 6 nm and (B) 3 nm. Scan size: 10×5 μm^2. Each of the images of FIG. 11 are representative of 3-5 scans at different locations with varying scan sizes from 1-10 micron.

native glucagon: human glucagon peptide (SEQ ID NO:5), synthesised by solid phase synthesis [reference compound]
fibril formation (AFM): forms fibrils
